Measured values taken from patent publication US6034212, “SH3 kinase domain associated protein, a signalling domain therein, nucleic acids encoding the protein and the domain, and diagnostic and therapeutic uses thereof” (The Rockefeller University, dated 2000).

B1: TrpE-YAP65 fusion protein (other)
chain: MQTQKPTLELLTCEGAYRDNPTALFHQLCGDRPATLLLESADIDSKDDLKSLLLVDSALRITALGDTVTIQALSGNGEALLALLDNALPAGVESEQSPNCRVLRFPPVSPLLDEDARLCSLSVFDAFRLLQNLLNVPKEEREAMFFGGLFSYDLVAGFEDLPQLSAENNCPDFCFYLAETLMVIDHQKKSTRIQASLFAPNEEEKQRLTARLNELRQQLTEAAPPLPVVSVPHMRCECNQSDEEFGGVVRLLQKAIRAGEIFQVVPSRRFSLPCPSPLAAYYVLKKSNPSPYMFFMQDNDFTLFGASPESSLKYDATSRQIEIPASLQLGAVSPGTLTPSGVVTGPGAPSSQHLRQSSFEIPDDVPLPPGWEMAKTPSGQRYFLNHIDQTTTWQDPRKAMLSQMNVTAPTSPPVQQNLMNSASAMNQRISQSAPVKQPPPLAPQSPQGGVMGGSSSNQQQQMRLQQLQMEKERLRLKHQELLRQELALRSQLPTMEQDGGSQNPVSSPGMSQELRTMTTNSSDPFLNSGTYHSRDESTDSGLSMSSYSVPRTPDDFLNSVDEMDTGDSISQSNIPSHQNRFPDYLEAIPGTNVDLGTLEGDGMNIEGEELMPSLQEALSSDILNDMES
modifications: 35S-labeled when used as probe

Columns and labels:
[1] = target: T1, GST-SH3-Yes fusion protein (Gallus gallus (Chicken), UniProt P09324, 35S-methionine labeled when used as probe); test: membrane binding assay, radioactively labeled TrpE-YAP65 on blotted GST fusions
Method: (§1) FIG. 5. Binding between YAP65 and Yes in vitro. (A) TrpE-YAP65 fusion protein (2,4,5,6,7) or TrpE alone (1,3) were probed on Western blots with ^35S-methionine labeled GST-Yes-SH3 alone (2) or with radioactive GST-Yes-SH3 supplemented with 10 µM of cold GST-Yes-SH3 (4); Lane 5 is as in lane 2 but the incubation was in the presence of SPLAP peptide (200 µM); lanes 6 and 7, the binding was competed with 50 µM and 200 µM of the PLAP peptide, respectively. The arrow indicates partially purified TrpE-YAP65 fusion protein. Lower migrating protein bands represent products of proteolytic degradation. Even if an increased concentration of protease inhibitors and careful purification protocols were used, we always observed limited degradation of the TrpE-YAP65 protein. Equal amounts (8 µg) of TrpE-fusion protein or TrpE protein were loaded into each lane of the SDS-polyacrylamide gel and transferred to nitrocellulose. […]
To perform reciprocal binding and to estimate the relative specificity of YAP65 binding to other proteins that contain SH3 domains, we probed the purified GST fusion proteins of Nck, Crk, Src, Abl and GAP with radioactively labeled Trp-E-YAP65 protein. The same amount of protein was analyzed in a membrane binding assay; TRPE-YAP-65 bound the strongest to Nck and Yes followed by Crk, and Src. […]

GST alone = GST alone (Schistosoma japonicum (Blood fluke), UniProt P08515 = GST, 32P-labelled when used as probe in Example 5); test: Western ligand blot on TrpE-YAP65
[2] = target: T1, GST-SH3-Yes fusion protein; test: competition of labeled GST-YES-SH3 binding to blotted TrpE-YAP65 by the scrambled peptide
Method: as §1, with “nitrocellulose. (B) Differential binding of ^35S-labeled TrpE-YAP65 fusion protein to various fusion proteins containing SH3 domains. Before the Western transfer, we had loaded equal amounts (1 µg) of purified proteins into each lane of the SDS gel. An SDS-polyacrylamide gel was run in parallel and stained with Coomassie Blue to confirm equal concentrations of the purified proteins.” for “nitrocellulose.”

| Binder | binding result [1] | binding result (GST alone) | binding result [2] |
| --- | --- | --- | --- |
| B1 | binds | no binding | – |
| VQPAQLSIPGPVSPQPKGQSPA [SPLAP peptide] | – | – | no binding (tested: 200 µM) |
